Here are results for 1 substance from patent US20210324108A1.

The target in this assay is human 4-1BB on Jurkat-hu4-1BB-NFκB-luc2 reporter cells (human) (UniProt Q07011). As to the kind of experiment: cell-based or functional assay.
human 4-1BB on Jurkat-hu4-1BB-NFκB-luc2 reporter cells (human), sequence (Q07011 24-255 limits assumed): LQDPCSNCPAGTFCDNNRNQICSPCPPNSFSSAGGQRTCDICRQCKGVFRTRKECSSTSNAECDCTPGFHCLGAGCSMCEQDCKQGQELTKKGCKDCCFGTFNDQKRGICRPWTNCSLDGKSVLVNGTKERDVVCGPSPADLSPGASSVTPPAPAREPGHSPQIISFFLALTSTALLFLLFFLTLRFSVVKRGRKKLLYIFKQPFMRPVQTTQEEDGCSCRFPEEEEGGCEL

In turn, “2+1 bispecific agonistic anti-4-1BB (20H4.9) x anti-FAP (4B9) huIgG1 P329GLALA antibody (bispecific antibody)” gave an EC50 of NFκB-luciferase activation in Jurkat-hu4-1BB-NFκB-luc2 cells with NIH/3T3-huFAP clone 19 of 0.02 nM and an area under the curve (AUC) of NFκB-luciferase activation in Jurkat-hu4-1BB-NFκB-luc2 cells with NIH/3T3-huFAP clone 19 of 53500.
